Series [1] concerns the molecule itself. The experiment in a line: cryo-EM structure; helical reconstruction of the helical stems of double-headed nucleocapsids (RELION 3.1); protein with bound host RNA in 20 mM Tris-HCl pH 7.4, 150 mM NaCl.
Series [2] deals with the molecule itself. Briefly: cryo-EM imaging of filaments; nucleoprotein fractions from HEK293F lysate after two-step sucrose ultracentrifugation, put directly on cryo-EM grids.
Series [3] deals with the molecule itself. Briefly: electron microscopy of purified filaments; purified mutant nucleoproteins imaged by EM; whether negative stain or cryo-EM is not told in the text shown.

B1: Sendai virus nucleoprotein, wild type, uncleaved (NWT), assembled as nucleocapsid NCWT (natural protein)
chain: MAGLLSTFDTFSSRRSESINKSGGGAVIPGQRSTVSVFVLGPSVTDDADKLSIATTFLAHSLDTDKQHSQRGGFLVSLLAMAYSSPELYLTTNGVNADVKYVIYNIEKDPKRTKTDGFIVKTRDMEYERTTEWLFGPMVNKSPLFQGQRDAADPDTLLQIYGYPACLGAIIVQVWIVLVKAITSSAGLRKGFFNRLEAFRQDGTVKGALVFTGETVEGIGSVMRSQQSLVSLMVETLVTMNTARSDLTTLEKNIQIVGNYIRDAGLASFMNTIKYGVETKMAALTLSNLRPDINKLRSLIDTYLSKGPRAPFICILKDPVHGEFAPGNYPALWSYAMGVAVVQNKAMQQYVTGRTYLDMEMFLLGQAVAKDAESKISSALEDELGVTDTAKERLRHHLANLSGGDGAYHKPTGGGAIEVALDNADIDLEPEAHTDQDARGWGGDSGDRWARSMGSGHFITLHGAERLEEETNDEDVSDIERRIARRLAERRQEDATTHEDEGRNNGVDHDEEDDAAAAAGMGGI
notes: Sendai virus nucleoprotein (N), wild type, uncleaved; the N-tail is printed as 404-524; helical polymer, number of protomers not fixed; also called SeV nucleoprotein; SeV nucleocapsid; source: E. coli BL21 (DE3), purified (HisTrap HP, Superose 6 increase)
Regarding B1, the binding result in series [1] was “binds”.

B2: Sendai virus nucleoprotein NWT over-expressed in HEK293F cells (natural protein)
chain: MAGLLSTFDTFSSRRSESINKSGGGAVIPGQRSTVSVFVLGPSVTDDADKLSIATTFLAHSLDTDKQHSQRGGFLVSLLAMAYSSPELYLTTNGVNADVKYVIYNIEKDPKRTKTDGFIVKTRDMEYERTTEWLFGPMVNKSPLFQGQRDAADPDTLLQIYGYPACLGAIIVQVWIVLVKAITSSAGLRKGFFNRLEAFRQDGTVKGALVFTGETVEGIGSVMRSQQSLVSLMVETLVTMNTARSDLTTLEKNIQIVGNYIRDAGLASFMNTIKYGVETKMAALTLSNLRPDINKLRSLIDTYLSKGPRAPFICILKDPVHGEFAPGNYPALWSYAMGVAVVQNKAMQQYVTGRTYLDMEMFLLGQAVAKDAESKISSALEDELGVTDTAKERLRHHLANLSGGDGAYHKPTGGGAIEVALDNADIDLEPEAHTDQDARGWGGDSGDRWARSMGSGHFITLHGAERLEEETNDEDVSDIERRIARRLAERRQEDATTHEDEGRNNGVDHDEEDDAAAAAGMGGI
notes: Sendai virus nucleoprotein (N), wild type; Fractions were chosen by western blot against the 6xHis tag; also called NWT in pCAGGS; nucleoproteins isolated from HEK293F cells; source: HEK293F, transfected, isolated from lysate by two-step sucrose ultracentrifugation; not shown: His6, C-terminal, kept
As for B2, the binding result in series [2] was “binds”.

B3: Sendai virus nucleoprotein loop mutant (residues 118 to 127 replaced with all alanine) (natural protein)
chain: MAGLLSTFDTFSSRRSESINKSGGGAVIPGQRSTVSVFVLGPSVTDDADKLSIATTFLAHSLDTDKQHSQRGGFLVSLLAMAYSSPELYLTTNGVNADVKYVIYNIEKDPKRTKTDGAAAAAAAAAAERTTEWLFGPMVNKSPLFQGQRDAADPDTLLQIYGYPACLGAIIVQVWIVLVKAITSSAGLRKGFFNRLEAFRQDGTVKGALVFTGETVEGIGSVMRSQQSLVSLMVETLVTMNTARSDLTTLEKNIQIVGNYIRDAGLASFMNTIKYGVETKMAALTLSNLRPDINKLRSLIDTYLSKGPRAPFICILKDPVHGEFAPGNYPALWSYAMGVAVVQNKAMQQYVTGRTYLDMEMFLLGQAVAKDAESKISSALEDELGVTDTAKERLRHHLANLSGGDGAYHKPTGGGAIEVALDNADIDLEPEAHTDQDARGWGGDSGDRWARSMGSGHFITLHGAERLEEETNDEDVSDIERRIARRLAERRQEDATTHEDEGRNNGVDHDEEDDAAAAAGMGGI
notes: Sendai virus nucleoprotein (N), derivative of NWT; also called Loop118–127 mutant; source: E. coli BL21 (DE3), purified (HisTrap HP, Superose 6 increase)
With B3, the binding result in series [3] was “binds”.
